From patent US20220073599A1 come the findings set out here.

The target in assay [1] is Pig VEGF-A-121 (pig) (UniProt P49151). Kind of assay: SPR crossreactivity set-up, VEGF-A121-His captured by anti-His antibody, Fab injected, single cycle kinetics.
In assay [2] the target is human VEGFA-121-His (human) (UniProt P15692). Briefly: KinExA equilibrium titration in solution, VEGFA-121.
The target in assay [3] is human VEGFA-165 (human) (UniProt P15692). Briefly: KinExA, VEGFA-165; set-up for VEGFA-165 not described. For orientation: In KinExA the mixture passes briefly over coated beads that capture the unbound partner.
Chain of human VEGFA-165 (human) (P15692 other isoform, or with tags, fused parts or gaps limits assumed): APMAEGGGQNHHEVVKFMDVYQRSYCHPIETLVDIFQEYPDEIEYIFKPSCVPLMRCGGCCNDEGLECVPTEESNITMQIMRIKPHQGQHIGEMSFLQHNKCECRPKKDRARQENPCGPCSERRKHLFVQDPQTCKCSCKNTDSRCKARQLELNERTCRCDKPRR

One may read the Kd as the concentration at which binding is half-saturated. Higher therefore signals a looser complex. In general, koff refers to the first-order rate constant of dissociation. Read a high koff as fast dissociation. Broadly, the kon is the second-order rate constant of association. Higher therefore signals faster complex formation.

Chain of Pig VEGF-A-121 (pig) (P49151 other isoform, or with tags, fused parts or gaps limits assumed): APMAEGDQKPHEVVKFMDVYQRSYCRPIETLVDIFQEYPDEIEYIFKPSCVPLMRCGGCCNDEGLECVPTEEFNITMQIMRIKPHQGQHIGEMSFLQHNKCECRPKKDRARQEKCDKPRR
Chain of human VEGFA-121-His (human) (P15692 other isoform, or with tags, fused parts or gaps): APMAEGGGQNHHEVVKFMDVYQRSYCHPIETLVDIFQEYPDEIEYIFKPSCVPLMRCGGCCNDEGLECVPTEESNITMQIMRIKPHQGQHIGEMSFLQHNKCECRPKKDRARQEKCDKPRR

B1: bispecific anti-VEGF-A/anti-ANG2 Fab fragment P1AD9820 (Fab, V domains shown)
VH: SEHLVESGGGLVKPGGSLRLSCATADFFEYDDMSWVRQAPGKGLEWVGSISPKGDHKYLNTKFIGRFTISRDDSKNTLYLQMNSLRAEDTAVYYCARDVGFFDWWGQGTLVTVSS
VL: AIYMHQEPSSLSASVGDRVTITCHGSYWLNSEVAWYQQKPGKAPKLLIFDGDFKVYEVPSRFSGSGSHEDYTLTISSLQPEDFATYYCQQYRYHPYTFGHGTKVEIKR
On to B1, for which, in assay [1], the equilibrium dissociation constant (Kd) is 2790 pM, the koff is 0.000499 s⁻¹, the association rate constant (kon) stood at 179000 M⁻¹ s⁻¹ and the t1/2 was 23 min.

B2: Brolucizumab-analogue (scFv, INN chains, looked up, V domains shown)
VH: EVQLVESGGGLVQPGGSLRLSCTASGFSLTDYYYMTWVRQAPGKGLEWVGFIDPDDDPYYATWAKGRFTISRDNSKNTLYLQMNSLRAEDTAVYYCAGGDHNSGWGLDIWGQGTLVTVSS
VL: EIVMTQSPSTLSASVGDRVIITCQASEIIHSWLAWYQQKPGKAPKLLIYLASTLASGVPSRFSGSGSGAEFTLTISSLQPDDFATYYCQNVYLASTNGANFGQGTKLTVL
modifications: scFv
Regarding B2, the equilibrium dissociation constant (Kd) in assay [2] amounted to 2 pM; in assay [3] it was 1 pM.
